Laboratory results as given in patent US20120283421A1 (published 2012).

Molecular target: T1, nine-person peanut-specific IgE antibody pool
T1 construct: polyclonal human serum IgE; also called pooled serum; peanut-positive serum pool
Assay: competitive ELISA inhibition, pooled serum IgE on coated crude peanut

B1: Ara h 1 (purified from peanut) (other)
chain: KSSPYQKKTENPCAQRCLQSCQQEPDDLKQKACESRCTKLEYDPRCVYDPRGHTGTTNQRSPPGERTRGRQPGDYDDDRRQPRREEGGRWGPAGPREREREEDWRQPREDWRRPSHQQPRKIRPEGREGEQEWGTPGSHVREETSRNNPFYFPSRRFSTRYGNQNGRIRVLQRFDQRSRQFQNLQNHRIVQIEAKPNTLVLPKHADADNILVIQQGQATVTVANGNNRKSFNLDEGHALRIPSGFISYILNRHDNQNLRVAKISMPVNTPGQFEDFFPASSRDQSSYLQGFSRNTLEAAFNAEFNEIRRVLLEENAGGEQEERGQRRWSTRSSENNEGVIVKVSKEHVEELTKHAKSVSKKGSEEEGDITNPINLREGEPDLSNNFGKLFEVKPDKKNPQLQDLDMMLTCVEIKEGALMLPHFNSKAMVIVVVNKGTGNLELVAVRKEQQQRGRREEEEDEDEEEEGSNREVRRYTARLKEGDVFIMPAAHPVAINASSELHLLGFGINAENNHRIFLAGDKDNVIDQIEKQAKDLAFPGSGEQVEKLIKNQKESHFVSARPQSQSQSPSSPEKESPEKEDQEEENQGGKGPLLSILKAFN
modifications: glycoprotein (PAS positive); fluorescein-labelled tracer in Example 6
notes: Native allergen from peanut extract; Forms trimers and hexamers
- IC50: 5.5 ng/mL
